Laboratory results taken from patent US20230059690A1 (CYTOMX THERAPEUTICS, published 2023).

B1: cHv75-2a7.G1(C99Y;L328C)k (antibody, V domains shown)
VH: EVQLVESGGGLVQPGGSLRLSCAASGITFSNYWMSWVRQAPGKGLEWVANIKKDGSEKFYVDSVKGRFTISRDNAKNSLYLQINSLRAEDTAMYYCAREIQLYLQHWGQGTLVTVSS
VL: DIQMTQSPSSVSASVGGRVTITCRASQGISNWLAWYQQKPGKAPKLLIYAASSLQSGVPSRFSGSGSGTDFTLTISNLQPEDFASYYCQQANSFPLTFGGGTKVEIKR
notes: also called [Ag]AB-5
B2: cHv75-2a11.G1(L328C)k (antibody, human IgG1, kappa, V domains shown)
VH: QVQLVESGGGVVQPGRSLRLSCAASGFTFSSYDMHWVRQAPGKGLEWVAVIWYDGSNKYYADSLKGRFTISRDNSKNTLYLQMNSLRAEDTAVYYCARVIAARTFYYYGMDVWGQGTTVTVSS
VL: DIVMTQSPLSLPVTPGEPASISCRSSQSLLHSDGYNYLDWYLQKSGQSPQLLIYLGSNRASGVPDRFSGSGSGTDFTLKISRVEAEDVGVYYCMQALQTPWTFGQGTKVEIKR
notes: also called [Ag]AB-4; cHv75-2a11.G1(1,328C)k

What was measured:
human PSMA = target: T1, human PSMA (human, UniProt Q04609 44-750); assay: FACS on hPSMA (FIG. 2)
T1 construct: also called hPSMA; Human PSMA dimer (DT1596)

mouse PSMA = mouse PSMA (mouse, UniProt O35409 45-752, limits assumed); assay: ELISA, Biacore and/or FACS (not said which for mouse)
mouse PSMA, sequence (O35409 45-752 limits assumed): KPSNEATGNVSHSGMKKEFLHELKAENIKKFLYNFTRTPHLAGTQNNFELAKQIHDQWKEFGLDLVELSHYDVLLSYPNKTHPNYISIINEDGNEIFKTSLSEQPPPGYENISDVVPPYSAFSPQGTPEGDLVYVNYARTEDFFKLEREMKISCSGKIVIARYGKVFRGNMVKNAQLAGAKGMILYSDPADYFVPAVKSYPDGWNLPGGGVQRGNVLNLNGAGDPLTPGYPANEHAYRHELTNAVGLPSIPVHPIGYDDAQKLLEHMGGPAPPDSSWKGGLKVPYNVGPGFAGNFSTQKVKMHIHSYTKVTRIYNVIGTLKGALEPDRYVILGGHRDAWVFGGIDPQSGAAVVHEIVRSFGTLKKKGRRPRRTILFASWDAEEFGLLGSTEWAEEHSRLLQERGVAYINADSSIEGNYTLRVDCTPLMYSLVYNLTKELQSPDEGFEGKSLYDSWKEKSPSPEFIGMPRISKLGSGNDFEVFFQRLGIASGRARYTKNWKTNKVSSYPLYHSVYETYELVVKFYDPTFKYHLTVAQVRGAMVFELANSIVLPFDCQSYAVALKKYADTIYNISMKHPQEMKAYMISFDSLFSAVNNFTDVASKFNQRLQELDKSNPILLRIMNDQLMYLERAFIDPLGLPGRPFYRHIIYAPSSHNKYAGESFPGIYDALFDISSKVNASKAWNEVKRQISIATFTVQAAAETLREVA

T1 sequence (Q04609 44-750 limits assumed): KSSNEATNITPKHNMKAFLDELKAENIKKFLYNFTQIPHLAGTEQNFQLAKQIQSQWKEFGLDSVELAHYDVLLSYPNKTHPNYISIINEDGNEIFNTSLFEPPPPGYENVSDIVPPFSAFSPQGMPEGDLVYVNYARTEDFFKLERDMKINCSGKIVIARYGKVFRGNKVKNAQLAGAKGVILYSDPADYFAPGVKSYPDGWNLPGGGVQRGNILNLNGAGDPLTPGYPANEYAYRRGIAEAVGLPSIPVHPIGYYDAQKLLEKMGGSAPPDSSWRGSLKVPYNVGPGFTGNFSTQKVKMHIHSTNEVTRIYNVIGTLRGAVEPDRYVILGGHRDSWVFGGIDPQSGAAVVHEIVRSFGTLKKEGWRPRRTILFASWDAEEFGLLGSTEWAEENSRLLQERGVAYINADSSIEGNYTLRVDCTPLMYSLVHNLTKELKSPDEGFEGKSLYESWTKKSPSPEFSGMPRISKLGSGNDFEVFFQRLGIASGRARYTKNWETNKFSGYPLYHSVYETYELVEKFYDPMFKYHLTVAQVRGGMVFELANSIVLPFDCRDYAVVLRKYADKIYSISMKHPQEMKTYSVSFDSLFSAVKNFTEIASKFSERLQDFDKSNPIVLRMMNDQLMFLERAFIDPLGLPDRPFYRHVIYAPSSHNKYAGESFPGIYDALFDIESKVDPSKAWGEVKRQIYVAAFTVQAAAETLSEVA

Row | Binder | binding result (human PSMA) | binding result (mouse PSMA)
1 | B1 | binds | no binding
2 | B2 | binds | no binding
